For 142 substances, amyloid nucleation score results are on record in the supplement of paper PMC12042874.

± gives the uncertainty stated by the source.

The nature of the data set: amyloid nucleation score (Sup35N fusion, yeast selection) (log enrichment); library NNK1; higher = more nucleation; inactive = no reads after selection. In outline: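 Nucleation score is defined as the DiMSum log enrichment of output over input reads, with centring on the mode score of non-aggregating sequences. A minimum of 100 input reads was required for each sequence. Reads came from Illumina sequencing of plasmid inserts from psi-negative yeast expressing Sup35N fused to peptides of 20 random codons, induced with 100 μM copper sulfate for 24 hours and grown 7 days at 30°C on medium lacking adenine and uracil.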
As to HSATGQIGRALLTSSCVCL, the amyloid nucleation score entry was “inactive”.

Regarding IGVCILTDRLHD, the amyloid nucleation score entry is “inactive”.

Substance SFNHYMFLYFVISGWSSPQA yielded an amyloid nucleation score of 1.1 ± 0.55.

In turn, IFTRLSLSFHNLGLGWKTRV returned an amyloid nucleation score of -0.248 ± 0.38.

Regarding SWIANRRRFAL, the amyloid nucleation score is 3.64 ± 0.15.

Regarding CMAHIYCWDICYNERWGFYI, the amyloid nucleation score was 4.11 ± 0.052.

NVSEVCKYYPLFRSD displayed an amyloid nucleation score of -0.007 ± 0.23.

As to VCIFCFRGGMVKRPTLDMVY, the amyloid nucleation score came out at 0.564 ± 0.19.

With FIWECGNIISVCMRIGYMKA, the amyloid nucleation score was found to be 1.23 ± 0.41.

On to GTFSGRKEL, for which the amyloid nucleation score amounted to 0.463 ± 0.3.

As to YWVILFPITIWSVKTSVGNH, the amyloid nucleation score came out at 1.7 ± 0.31.

With DVANRVVSSFLIC, the amyloid nucleation score is -0.525 ± 0.45.

As for YYLQDDTWGLKFNPIVSTCF, the amyloid nucleation score turned out to be 1.13 ± 0.54.

In turn, FRGEVYELEIKGKILSSVFV showed an amyloid nucleation score of 0.121 ± 0.24.

As for EKNYRICGFMGLLLFRIE, the amyloid nucleation score result was “inactive”.

On to SVTEVFYGKSVFLTFVFGIF, for which the amyloid nucleation score turned out to be 0.292 ± 0.31.

PFTHHHKCLVHRLLCRLQHE: the amyloid nucleation score amounted to 0.616 ± 0.79.

Consider LRYDVPRWLGFSEWHF, for which the amyloid nucleation score is -0.833 ± 1.

Take LSAVPSNGHNNGGYVKSDVS: the amyloid nucleation score is -0.766 ± 1.4.

VLVDKSDRVRGLS registered an amyloid nucleation score of -0.101 ± 0.3.

Regarding CQYVCRDNFDYQTSSSCGCD, the amyloid nucleation score result was “inactive”.

With VARSHYMCI, the amyloid nucleation score was determined as 0.132 ± 0.38.

With GFCFNECFLAGV, the amyloid nucleation score is -0.285 ± 0.59.

As to TDSSKGRGARRGGSNSSHSW, the amyloid nucleation score is -0.419 ± 0.61.

Regarding VTHNSTAHE, the amyloid nucleation score was found to be 1.09 ± 0.75.

In turn, SSVGKLGDPWL yielded an amyloid nucleation score of -1.15 ± 0.53.

The substance QKVHANSMM came in with an amyloid nucleation score of 0.973 ± 0.9.

Regarding STIGNVY, the amyloid nucleation score is -0.586 ± 0.51.

As for VTYDKAQG, the amyloid nucleation score is 0.051 ± 0.68.

For LIRLMSQ, the amyloid nucleation score was 1.83 ± 0.24.

For the substance GMVSIL, the amyloid nucleation score was -0.278 ± 1.2.

Regarding NFMYTYTVTLRRGYGEVSCA, the amyloid nucleation score was -0.071 ± 0.6.

Consider SNRFVPSNSSKVGSNVIDAK, for which the amyloid nucleation score worked out at 0.386 ± 0.36.

Consider CGQLACVEPNWLSIKVMFRN, for which the amyloid nucleation score result is “inactive”.

In turn, NTANIIDTGGDSTPLISRSC displayed an amyloid nucleation score of -0.958 ± 0.96.

RGVCSRDVWARLVELTAEMG: the amyloid nucleation score is 0.459 ± 0.93.

For the substance AMGRLYS, the amyloid nucleation score was -0.41 ± 0.3.

For the substance NFYMGETDGACLCASMRDPQ, the amyloid nucleation score was found to be 2.62 ± 0.14.

With CILWDWMYEGMKTSEGIFDR, the amyloid nucleation score was 0.118 ± 0.71.

As to WNHFERMEKPA, the amyloid nucleation score is -0.639 ± 1.2.

DFASVEFWLIALPSQMCWFF showed an amyloid nucleation score of 0.056 ± 0.76.

As for ETSVRMVFFVKRLTGYMNLR, the amyloid nucleation score is -0.277 ± 0.33.

For the substance CFCVD, the amyloid nucleation score turned out to be 1.01 ± 0.19.

The substance SKRLACSYSSMFVKCSEYKL returned an amyloid nucleation score of 0.413 ± 0.97.

TDLLWKTSLLPNVY gave an amyloid nucleation score of 1.71 ± 0.36.

Regarding VWENQLVWMVWWWEGTGS, the amyloid nucleation score stood at 0.527 ± 0.49.

In turn, TDNDLVHYCTM displayed an amyloid nucleation score of 0.029 ± 0.59.

The substance TLGAVHTVHVRFGESSNVFL had an amyloid nucleation score of 0.055 ± 0.74.

The substance LMGMRPFELHRRRGHGHVLG gave an amyloid nucleation score of -0.019 ± 0.64.

CFYMVSFEFR: the amyloid nucleation score stood at 1.12 ± 0.34.

Regarding VFLKCFRYTFNNHINFFCVG, the amyloid nucleation score is 5.96 ± 0.064.

Regarding TMVGTMVSMF, the amyloid nucleation score is -0.539 ± 0.45.

The substance TIFNLLPMGC yielded an amyloid nucleation score of 0.975 ± 0.58.

Take GFKPWVVCWTWQAAPKVRSP: the amyloid nucleation score was 0.702 ± 0.73.

YMASYGNLVGMFDAIQVLIV returned an amyloid nucleation score of 1.08 ± 0.31.

In turn, DAWEDGSKMYESLGV displayed an amyloid nucleation score of -1.01 ± 0.56.

Turning to MTYITTGSSKYEGYKFTCMT, the amyloid nucleation score came to 0.502 ± 0.51.

WPNNRVQFCSCGSRFSCLGS came in with an amyloid nucleation score of 0.933 ± 0.85.

Substance LNRRLGDVEPIYAGLTSQQS registered an amyloid nucleation score of 0.313 ± 0.3.

Regarding KSPRFASTYPLSSSYSLRVI, the amyloid nucleation score is -0.327 ± 0.28.

DCFLCLKVLGMSAVLREWYL had an amyloid nucleation score of -1.17 ± 0.94.

Substance VNSFCR had an amyloid nucleation score of 0.587 ± 1.1.

With CNDHNNEYVNVSHTRRARL, the amyloid nucleation score amounted to 0.99 ± 0.24.

Regarding FIRVGLVCVLKFRSVGEAWL, the amyloid nucleation score was -0.045 ± 0.9.

ANCFPLCRKNLGRSGVNNVR came in with an amyloid nucleation score of -0.452 ± 0.74.

ARSVKAIIKAICRGV gave an amyloid nucleation score of -0.055 ± 0.95.

On to FIRSRMVWLCLMLISTIERG, for which the amyloid nucleation score stood at 0.835 ± 0.39.

Consider LRDDRFLMKLHYKKQDSSCV, for which the amyloid nucleation score is 0.324 ± 0.53.

In the case of GGPDTMEMGSFGDARATDAG, the amyloid nucleation score worked out at 1.03 ± 0.93.

In turn, WDCYCPWLTLKYEAGLRTSG yielded an amyloid nucleation score of -1.17 ± 1.9.

WACMWAQSPYGAFFIVSMED: the amyloid nucleation score is -0.223 ± 0.38.

For YQLWPQASMKMCD, the amyloid nucleation score was determined as 0.258 ± 0.4.

MSYRD showed an amyloid nucleation score of -0.995 ± 1.7.

In turn, SYSSVVSVYFLQIYFF displayed an amyloid nucleation score of 4.05 ± 0.054.

Regarding GCALPQYKILWSFRFYWVGN, the amyloid nucleation score result was “inactive”.

IVGMASRCRGFR yielded an amyloid nucleation score of 1.11 ± 0.71.

As for LGLDTEVVGPGPGGYHLWQK, the amyloid nucleation score was 0.112 ± 0.27.

SVMLLQLYMCLINFPNIPRT: the amyloid nucleation score turned out to be 1.6 ± 0.44.

Consider KLQVGSPN, for which the amyloid nucleation score is -0.053 ± 1.4.

DCGDSKRYVRITMFYFNRII registered an amyloid nucleation score of -0.262 ± 0.34.

In the case of CNGAGNLEGDGF, the amyloid nucleation score was found to be 0.317 ± 0.33.

In turn, CWYWDSPSVGFTAILYYLAG registered an amyloid nucleation score of 0.138 ± 0.57.

Take NTADTFMNLAILSC: the amyloid nucleation score turned out to be 0.148 ± 0.35.

In the case of YLIRHIENGCSTQCRSTSWV, the amyloid nucleation score entry is “inactive”.

Substance PLRTLPEQRCW displayed an amyloid nucleation score of -0.006 ± 0.29.

RVRNMPTPSLSHMNLFSSVG: the amyloid nucleation score is -0.038 ± 0.35.

YTSSFVKDGKHWSRSKTGVY: the amyloid nucleation score is -0.569 ± 0.73.

The substance CEWAAGRTWMKLGSSSTKTK had an amyloid nucleation score of 3.87 ± 0.12.

FREVMTGSNYRPTC: the amyloid nucleation score was 0.158 ± 0.64.

As for EGATWIFQYLAGGVG, the amyloid nucleation score was -0.534 ± 0.34.

SDYGLGMSDWGDFMDRVGLR had an amyloid nucleation score of 0.527 ± 1.2.

For INNIVK, the amyloid nucleation score worked out at 0.602 ± 0.29.

In the case of FQCVFH, the amyloid nucleation score amounted to 3.88 ± 0.062.

In the case of KMAYRVVNNLGCSIMCNICT, the amyloid nucleation score is 7.616 ± 0.046.

Regarding CSLIIFAYRRLEFMILFYFD, the amyloid nucleation score is -0.26 ± 0.49.

The substance MNKLYITA gave an amyloid nucleation score of 0.035 ± 0.84.

With WIMKGY, the amyloid nucleation score is -0.123 ± 1.1.

With WFVTFVWVSSVRTILP, the amyloid nucleation score turned out to be 0.361 ± 1.

Substance GTCTMTKSFMIDIF registered an amyloid nucleation score of 0.235 ± 0.25.

With CCGLSDLYDVAVERVGGLLN, the amyloid nucleation score was -1.26 ± 1.1.

In turn, DTNFYLFMTHG yielded an amyloid nucleation score of 0.244 ± 1.

In the case of TCDRVNAIVEFWRCR, the amyloid nucleation score is 1.46 ± 0.12.

As to LKLLINGY, the amyloid nucleation score is -0.333 ± 0.59.

GEFAYSMVQGHYRIMLMSLK gave an amyloid nucleation score of 1.49 ± 0.68.

Regarding TRCASC, the amyloid nucleation score was determined as 0.3 ± 0.65.

RIENDGLEMLGIINQQSCGS registered an amyloid nucleation score of 4.01 ± 0.11.

In turn, TGYFNTRVWLDRLDYVLETN yielded an amyloid nucleation score of -0.44 ± 0.29.

Regarding QLSDVSRWSFIWLKGGQRST, the amyloid nucleation score is 0.334 ± 0.84.

KSFACYNKDQ displayed an amyloid nucleation score of 0.423 ± 0.99.

As to EHWSRSVGSHASVWFVAPAG, the amyloid nucleation score result is “inactive”.

YGLATFMGKES returned an amyloid nucleation score of -0.104 ± 0.85.

Take QSTMIASMRYSFFACAVLYI: the amyloid nucleation score came out at 0.074 ± 0.51.

For DSPGSSGCKGATVHMSFTWG, the amyloid nucleation score came to 0.731 ± 0.61.

For the substance SGNGG, the amyloid nucleation score was -0.158 ± 0.34.

As to WCGKACFVYKSHGQGG, the amyloid nucleation score stood at 0.235 ± 0.53.

For SWQAVCAMSCCLW, the amyloid nucleation score stood at 8.628 ± 0.051.

As for FKVTVRVGSTMSILL, the amyloid nucleation score turned out to be 0.223 ± 0.42.

In turn, CQCGMVGVL came in with an amyloid nucleation score of -0.005 ± 0.45.

IIFGRGFFSHSGVRTNQCYT came in with an amyloid nucleation score of -1.43 ± 1.

On to FRFLKEASKCKPVTVMSPSW, for which the amyloid nucleation score is 0.123 ± 0.7.

In turn, GVMCIMYNFSHYYLSVVNNR displayed an amyloid nucleation score of 7.77 ± 0.083.

For IWQFDWPHRGIEMRVRRDMT, the amyloid nucleation score turned out to be 0.135 ± 0.69.

LKDRGYQKYFNSGLIGCNAS showed an amyloid nucleation score of -0.096 ± 0.47.

RLYLDMSIRPSWASVRFSFG came in with an amyloid nucleation score of -1.19 ± 1.9.

Regarding PRSVVSTEPSGTVGVPKENK, the amyloid nucleation score was -0.839 ± 0.62.

Turning to MSFSCWFLS, the amyloid nucleation score stood at 0.445 ± 0.88.

As to ADLLVVGVPSFNFWSSKVFV, the amyloid nucleation score entry is “inactive”.

On to RHSKMVQLRLSTYGVET, for which the amyloid nucleation score entry was “inactive”.

Turning to TPNMCGWLVLTSM, the amyloid nucleation score was -0.448 ± 0.62.

Turning to LKSTEWSGRGFQ, the amyloid nucleation score is 0.862 ± 0.19.

In turn, TMHVMVGGYL displayed an amyloid nucleation score of 1.38 ± 0.41.

The substance LRITYMSLVEYG displayed an amyloid nucleation score of 1.35 ± 0.69.

RFLIGWFFSFLGCFLKRDSW registered an amyloid nucleation score of -0.571 ± 1.6.

In turn, FFNYD displayed an amyloid nucleation score of -0.628 ± 0.8.

For the substance AISLVAVRFMGMGEGVSDKN, the amyloid nucleation score was determined as 5.33 ± 0.1.

The substance AWGCMMAYFTGRLISEVSNS showed an amyloid nucleation score of -0.529 ± 0.36.

In the case of ISGRVGAWSPIVYWPLRRGG, the amyloid nucleation score was -0.573 ± 0.61.

As for DCMFYVDRTGRSIGVVSIVE, the amyloid nucleation score was -0.021 ± 0.28.

With DESFCVVLFFFLCCLWFCHL, the amyloid nucleation score came to 0.184 ± 0.7.

NSAILITNIECLYNIITLFT yielded an amyloid nucleation score of 6.389 ± 0.048.

Consider FDNVVGYNGFMDGPGYLLYT, for which the amyloid nucleation score is -0.16 ± 0.25.

The substance YCSTSYRSSHNRSGVWKGTL showed an amyloid nucleation score of 1.62 ± 0.55.
